Assay results as given in publication PMC5478280.

How the values were obtained:
[1] = target: Csy complex with Cas7f K85A (P. aeruginosa (strain PA14)) (UniProt Q02ML9); assay: SPR
[2] = target: Csy complex (type I-F crRNA-guided surveillance complex), wild type (P. aeruginosa (strain PA14)) (UniProt Q02ML9); assay: cryo-EM structure

Substance | kd1 (dissociation rate) [1] | stoichiometry N [2]
anti-CRISPR protein AcrF1 (natural protein) | 0.00031 s⁻¹ | 2
anti-CRISPR protein AcrF2 (natural protein) |  | 1
